Experiments:
[1] = target: HIV-1 Env of isolate 92TH021 (HIV-1); assay: cell-based or functional assay
[2] = target: HIV-1 JR-CSF Env I326A (HIV-1 isolate JR-CSF) (UniProt P20871); assay: cell-based or functional assay
[3] = target: HIV-1 JR-CSF Env S393A (HIV-1 (isolate JR-CSF)) (UniProt P20871); assay: cell-based or functional assay
[4] = target: HIV-1 JR-CSF Env I323A (HIV-1 isolate JR-CSF) (UniProt P20871); assay: cell-based or functional assay
[5] = target: Env of the clade F HIV-1 pseudoviruses of the cross-clade 162-pseudovirus panel (n = 15); assay: cell-based or functional assay
[6] = target: HIV-1 JR-CSF Env T202A (HIV-1 JR-CSF) (UniProt P20871); assay: cell-based or functional assay
[7] = target: HIV-1 JR-CSF Env T341A (HIV-1 isolate JR-CSF) (UniProt P20871); assay: cell-based or functional assay
[8] = target: HIV-1 JR-CSF Env I414A (HIV-1 (isolate JR-CSF)) (UniProt P20871); assay: cell-based or functional assay
[9] = target: HIV-1 JR-CSF Env K343A (HIV-1 isolate JR-CSF) (UniProt P20871); assay: cell-based or functional assay
[10] = target: HIV-1 JR-CSF Env I420A (HIV-1 (isolate JR-CSF)) (UniProt P20871); assay: cell-based or functional assay
[11] = target: HIV-1 JR-CSF Env I309A (HIV-1 JR-CSF) (UniProt P20871); assay: cell-based or functional assay
[12] = target: HIV-1 JR-CSF Env T303A (HIV-1 JR-CSF) (UniProt P20871); assay: cell-based or functional assay
[13] = target: HIV-1 JR-CSF Env S334A (HIV-1 isolate JR-CSF) (UniProt P20871); assay: cell-based or functional assay
[14] = target: HIV-1 JR-CSF Env T413A (HIV-1 (isolate JR-CSF)) (UniProt P20871); assay: cell-based or functional assay
[15] = target: HIV-1 JR-CSF Env T394A (HIV-1 (isolate JR-CSF)) (UniProt P20871); assay: cell-based or functional assay
[16] = target: HIV-1 JR-CSF Env S199A (HIV-1 JR-CSF) (UniProt P20871); assay: cell-based or functional assay
[17] = target: HIV-1 JR-CSF Env W395A (HIV-1 (isolate JR-CSF)) (UniProt P20871); assay: cell-based or functional assay
[18] = target: HIV-1 JR-CSF Env T320A (HIV-1 isolate JR-CSF) (UniProt P20871); assay: cell-based or functional assay
[19] = target: HIV-1 JR-CSF Env N301A (HIV-1 JR-CSF) (UniProt P20871); assay: cell-based or functional assay
[20] = target: HIV-1 JR-CSF Env T388A (HIV-1 (isolate JR-CSF)) (UniProt P20871); assay: cell-based or functional assay
[21] = target: Env of the clade G HIV-1 pseudoviruses of the cross-clade 162-pseudovirus panel (n = 15); assay: cell-based or functional assay
[22] = target: HIV-1 JR-CSF Env N339A (HIV-1 isolate JR-CSF) (UniProt P20871); assay: cell-based or functional assay
[23] = target: HIV-1 JR-CSF Env P299A (HIV-1 JR-CSF) (UniProt P20871); assay: cell-based or functional assay
[24] = target: HIV-1 JR-CSF Env S306A (HIV-1 JR-CSF) (UniProt P20871); assay: cell-based or functional assay
[25] = target: Env of the clade A HIV-1 pseudoviruses of the cross-clade 162-pseudovirus panel (n = 26); assay: cell-based or functional assay
[26] = target: HIV-1 JR-CSF Env D417A (HIV-1 (isolate JR-CSF)) (UniProt P20871); assay: cell-based or functional assay
[27] = target: HIV-1 JR-CSF Env N411A (HIV-1 (isolate JR-CSF)) (UniProt P20871); assay: cell-based or functional assay
[28] = target: HIV-1 JR-CSF Env K305A (HIV-1 JR-CSF) (UniProt P20871); assay: cell-based or functional assay
[29] = target: HIV-1 JR-CSF Env N396A (HIV-1 (isolate JR-CSF)) (UniProt P20871); assay: cell-based or functional assay
[30] = target: WT JR-FL gp120 (HIV-1 (isolate JR-FL)); assay: ELISA on coated gp120; EC50 by nonlinear regression
[31] = target: JR-FL gp120 ΔV1/ΔV2 (HIV-1 (isolate JR-FL)); assay: as above
[32] = target: HIV-1 JRFL envelope glycoprotein (Env) (HIV-1); assay: cell-based or functional assay
[33] = target: HIV-1 MGRM-A-010 envelope glycoprotein (Env) (HIV-1); assay: cell-based or functional assay
[34] = target: HIV-1 JRCSF envelope glycoprotein (Env) (HIV-1) (UniProt P20871); assay: cell-based or functional assay
[35] = target: HIV-1 NL43 envelope glycoprotein (Env) (HIV-1); assay: cell-based or functional assay

Binder	Fold IC50 increase relative to wild-type [2] [fold]	Fold IC50 increase relative to wild-type [3] [fold]	Fold IC50 increase relative to wild-type [4] [fold]	Median IC50 against viruses neutralized with an IC50 <50 µg/ml [5] [µg/mL]	Fold IC50 increase relative to wild-type [6] [fold]	Fold IC50 increase relative to wild-type [7] [fold]	Fold IC50 increase relative to wild-type [8] [fold]	Fold IC50 increase relative to wild-type [9] [fold]	Fold IC50 increase relative to wild-type [10] [fold]	Fold IC50 increase relative to wild-type [11] [fold]	Fold IC50 increase relative to wild-type [12] [fold]	Fold IC50 increase relative to wild-type [13] [fold]	Fold IC50 increase relative to wild-type [14] [fold]	Fold IC50 increase relative to wild-type [15] [fold]	Fold IC50 increase relative to wild-type [16] [fold]	Fold IC50 increase relative to wild-type [17] [fold]	Fold IC50 increase relative to wild-type [18] [fold]	Fold IC50 increase relative to wild-type [19] [fold]	Fold IC50 increase relative to wild-type [20] [fold]	Median IC50 against viruses neutralized with an IC50 <50 µg/ml [21] [µg/mL]	also measured
PGT-128 (antibody, V domains shown) VH: QPQLQESGPTLVEASETLSLTCAVSGDSTAACNSFWGWVRQPPGKGLEWVGSLSHCASYWNRGWTYHNPSLKSRLTLALDTPKNLVFLKLNSVTAADTATYYCARFGGEVLRYTDWPKPAWVDLWGRGTLVTVSS VL: QSALTQPPSASGSPGQSITISCTGTSNNFVSWYQQHAGKAPKLVIYDVNKRPSGVPDRFSGSKSGNTASLTVSGLQTDDEAVYYCGSLVGNWDVIFGGGTKLTVL	1.6	1.4	3	0.52	1.1	1.3	1.4	1	0.8	2.8	> 500	1.4	1	3	1	0.8	1	10.7	1	0.04	Polyclonal Transfectant Neutralization Index (well 5114 A19) [1]: 10; Primary Neutralization Index (B cell culture well 5114 A19) [1]: 6.6; Fold IC50 increase relative to wild-type [22]: 0.8 fold; Fold IC50 increase relative to wild-type [23]: 1.2 fold; Fold IC50 increase relative to wild-type [24]: 1.1 fold; Median IC50 against viruses neutralized with an IC50 <50 µg/ml [25]: 0.01 µg/mL; Fold IC50 increase relative to wild-type [26]: 0.5 fold; Fold IC50 increase relative to wild-type [27]: 0.7 fold; Fold IC50 increase relative to wild-type [28]: 1.8 fold; Fold IC50 increase relative to wild-type [29]: 0.9 fold; EC50 [30]: 0.1 µg/mL; EC50 [31]: 0.3 µg/mL
PGT-130 (antibody, V domains shown) VH: QVQLQESGPGLVKPAETLSLTCSVSGESINTGHYYWGWVRQVPGKGLEWIGHIHYTTAVLHNPSLKSRLTIKIYTLRNQITLRLSNVTAADTAVYHCVRSGGDILYYYEWQKPHWFSPWGPGIHVTVSS VL: QSALTQPPSASGSLGQSVTISCNGTSSDIGGWNFVSWYQQFPGRAPRLIIFEVNKRPSGVPGRFSGSKSGNSASLTVSGLQSDDEGQYFCSSLFGRWDVVFGGGTKLTVL	1.3	0.7	0.8	0.07	1.2	0.8	0.7	1.1	9.8	> 77.9	> 250	0.5	0.6	1.2	0.9	0.6	0.9	> 1000	1	4.14	Polyclonal Transfectant Neutralization Index (well 5147 N6) [1]: 4.2; Primary Neutralization Index (B cell culture well 5147 N6) [1]: 538; IC50 neutralization [32]: 0.0346 µg/mL; IC50 neutralization [33]: 0.0054 µg/mL; IC50 neutralization [34]: 0.0089 µg/mL; IC50 neutralization [35]: > 10 µg/mL; Fold IC50 increase relative to wild-type [22]: 0.2 fold; Fold IC50 increase relative to wild-type [23]: 0.8 fold; Fold IC50 increase relative to wild-type [24]: 1.5 fold; Median IC50 against viruses neutralized with an IC50 <50 µg/ml [25]: 0.09 µg/mL; Fold IC50 increase relative to wild-type [26]: 1 fold; Fold IC50 increase relative to wild-type [27]: 0.6 fold; Fold IC50 increase relative to wild-type [28]: 6.9 fold; Fold IC50 increase relative to wild-type [29]: 1 fold; EC50 [30]: 0.2 µg/mL
PGT-131 (antibody, V domains shown) VH: QVQLQESGPGLVKPSETLSLTCTVSGDSINTGHHYWGWVRQVPGKGPEWIAHIHYNTAVLHNPALKSRVTISIFTLKNLITLSLSNVTAADTAVYFCVRSGGDILYYIEWQKPHWFYPWGPGILVTVSS VL: QSALTQPPSASGSLGQSLTISCSGTGSDIGSWNFVSWYQQFPGRAPNLIIFEVNRRRSGVPDRFSGSKSGNTASLTVSGLRSEDEAEYFCSSLSGRWDIVFGGGTKVTVL	1.7	1.1	38	0.55	2.7	1.3	1	1.1	153	8.8	> 170	0.4	0.6	0.9	1.6	0.5	4.5	> 170	0.6	3.54	Primary Neutralization Index (B cell culture well 5136 H1) [1]: 354; Fold IC50 increase relative to wild-type [22]: 1 fold; Fold IC50 increase relative to wild-type [23]: 2 fold; Fold IC50 increase relative to wild-type [24]: 0.7 fold; Median IC50 against viruses neutralized with an IC50 <50 µg/ml [25]: 0.09 µg/mL; Fold IC50 increase relative to wild-type [26]: 1 fold; Fold IC50 increase relative to wild-type [27]: 0.6 fold; Fold IC50 increase relative to wild-type [29]: 0.9 fold; EC50 [30]: 0.4 µg/mL
PGT-135 (antibody, V domains shown) VH: QLQMQESGPGLVKPSETLSLSCTVSGDSIRGGEWGDKDYHWGWVRHSAGKGLEWIGSIHWRGTTHYKESLRRRVSMSIDTSRNWFSLRLASVTAADTAVYFCARHRHHDVFMLVPIAGWFDVWGPGVQVTVSS VL: EIVMTQSPDTLSVSPGETVTLSCRASQNINKNLAWYQYKPGQSPRLVIFETYSKIAAFPARFVASGSGTEFTLTINNMQSEDVAVYYCQQYEEWPRTFGQGTKVDIK	1.2	0.9	1.5	0.21	1.8	0.6	1.2	1.1	1.4	0.3	0.3	> 30	0.3	> 75	0.3	0.6	0.5	0.5	0.1	0.14	IC50 neutralization [32]: > 10 µg/mL; IC50 neutralization [33]: > 10 µg/mL; IC50 neutralization [34]: 0.113 µg/mL; IC50 neutralization [35]: 6.79 µg/mL; Fold IC50 increase relative to wild-type [22]: 1.2 fold; Fold IC50 increase relative to wild-type [23]: 0.36 fold; Fold IC50 increase relative to wild-type [24]: 0.4 fold; Median IC50 against viruses neutralized with an IC50 <50 µg/ml [25]: 0.64 µg/mL; Fold IC50 increase relative to wild-type [26]: 5 fold; Fold IC50 increase relative to wild-type [27]: 0.2 fold; Fold IC50 increase relative to wild-type [28]: 0.2 fold; Fold IC50 increase relative to wild-type [29]: 1 fold; EC50 [30]: 0.1 µg/mL; EC50 [31]: 0.1 µg/mL

Source: patent publication US20200024330A1
